The source of these data is paper PMC10449631 (Nature Chemical Biology, 2023).

Several values for one entry are separate records, joined by “and”; a condition that tells them apart may be missing. Identical values can stand only once. Positions of bridges follow the written chain, without caps; N, C: chain ends. Residues, ends and D or L forms follow the SMILES beside them. No end group written: not given here.

One data set can be described thus: in vitro. Type of data set: in vitro ADME, Pseudomonas aeruginosa. To be noted: cells or culture medium; after 48 h growth; read-out: peptide remaining in solution. As to the method: Supplementary Figure 19. Stability of cyclic-ERWGHDFIK
The stability of cyclic-ERWGHDFIK was tested by incubating in LB media +/- inoculation with PA14 Pseudomonas aeruginosa. Samples were taken at set timepoints over a 48 hour time period, quenched and analysed by LC-MS. % of cyclic-ERWGHDFIK remaining was calculated by comparing integrated peak areas to the 0 time point. n=1 […]
(1 picture or pasted object on this page, not shown here)

Data set [1] concerns the target T1, PaAP_T (P. aeruginosa aminopeptidase, C-terminal truncated) (Pseudomonas aeruginosa, UniProt Q02PA2).
T1 construct: PaAP (WT, residues 27–536); His6 (TEV cleavable) (N, cleaved yes); made in house; host or cells: E. coli SHuffle T7
Kind of data set: Inhibition of PaAP_T in the Leu-pNA aminopeptidase assay (KI, IC50). The data set is classed as biochemical. As to the method:
(§1) Aminopeptidase activity was determined spectrophotometrically primarily using amino Leu-pNA. Other commercially available pNA substrates (isoleucine, methionine, alanine, valine, proline, arginine, lysine and phenylalanine) were also assayed. Leu-pNA was incubated with enzyme (100 nM) in assay buffer (50 mM Tris, pH 8.5, 200 mM NaCl) at 25 °C. A pNA release caused an absorbance increase at 405 nm, monitored using a BMG Labtech plate reader. […] Data were plotted in GraphPad Prism (version 9) and the Michalis Menten equation was used for fitting.
(§2) Inhibition assays were carried out with the following peptides: linear-ERWGHDFIK (PaAP C-terminal residues), cyclic-ERWGHDFIK, N-acetylated and C-amidated ERWGHDFIK. IC50 values were determined by varying peptide concentration at a fixed substrate concentration (fixed at KM, (S) = 2 mM, PaAP concentration was 100 nM). […] KI values were determined by fitting the data to equation (1) (Morrison’s equation):1 v=1−Et+I+KI−Et+I+KI^2−4EtIKI/2Et where v is the velocity, Et is the total enzyme concentration, I is the concentration of inhibitor and KI is the equilibrium dissociation constant for the inhibitor. IC50 values increased when measured at increasing S, consistent with competitive inhibition.

In data set [2] the test system is PaAP. Description: PaAP in reaction buffer (50 mM Tris, pH 8.5, 100 mM NaCl). The conditions noted are these: P. aeruginosa, room temperature, up to overnight.
For data set [3], the target named is T2, PaAP_T (Pseudomonas aeruginosa, UniProt Q02PA2).
T2 construct: PaAP (WT, residues 27–536); His6 (TEV cleavable) (N, cleaved yes); made in house; host or cells: E. coli SHuffle T7
Kind of data set: Enzymatic assay with amino acid-pNA substrates (kcat, KM). The data set is classed as biochemical. To be noted: amino acid–pNA substrate. As to the method: as §1

Data set [4] has as its target T3, PaAP (Pseudomonas aeruginosa, UniProt Q02PA2, A513L/Q514V/S515P).
T3 construct: PaAP (WT, residues 27–536); His6 (TEV cleavable) (N, cleaved yes); made in house; host or cells: E. coli SHuffle T7
Description: Peptide digestion assay (overnight and time course, LC-MS/MALDI). Type of data set: biochemical. The conditions noted are these: for P0 (parent peptide, LC–MS signal): 500 μM peptide, 1 μM PaAP_T, listed as ERWGHDFIK-NH3. As to the method: A variety of peptides of varying lengths and compositions were incubated with PaAP at room temperature. Assays were performed by incubating (overnight at room temperature) 500 μM of substrate (peptides) with 1 μM enzyme (PaAP) in reaction buffer (50 mM Tris, pH 8.5, 100 mM NaCl). The reactions were quenched by heating to 100 °C for 10 min followed by centrifugation at 17,000g in a benchtop centrifuge to remove precipitate. Supernatant was collected and samples were analyzed by LC–MS. Initial trial assays were carried out in the presence and absence (control) of enzyme to determine if the substrate was degraded (single or triplicate experiments). Time-course assays were performed on selected peptide substrates in triplicate. A 300 μl reaction (including 500 μM of substrate) was initiated by the addition of 1 μM enzyme. The reaction was incubated at room temperature. The reaction was quenched at set timepoints by the removal of 30 μl aliquots, which were immediately heated to 100 °C for 10 min. The samples were analyzed by LC–MS using a Xevo Q-ToF (Waters) as described below, searching for masses of all peptide breakdown products.
Peptide degradation time courses were fitted to exponential equations as follows:
P0 peptide consumption was fitted to a single exponential equation (equation (2)) with the format2 yt=y0−Plateaue^−kt+Plateau
Time courses for the formation and decay of peptide intermediates were fitted to double exponential equations (equation (3)) and single exponential equations, followed by a linear phase (4)3 yt=y0−Plateau1e^−k1t+y0−Plateau2e^−k2t+Plateau 4 yt=y0−Plateaue^−kt+vt+Plateau where y(t) is the product formed at time t, y0 − Plateau is the amplitude of the exponential phase, k is the observed rate constant for the exponential phase, y0 is the value of y at time 0, Plateau is the value of y after exponential phase, C is the offset and v is the slope of the linear phase.
Peptide samples incubated in the presence and absence of PaAP were initially analyzed by MALDI. The peptide sample (0.5 µl at 10 µM) was spotted along with matrix (0.5 µl 10 mg ml^−1 α-cyano-4-hydroxycinnamic acid in ACN/0.1% TFA (50/50, vol/vol)) on a stainless steel MALDI plate and left to dry. The sample plate was loaded into a Sciex 4800 MALDI mass spectrometer. The laser voltage was adjusted to give a good signal to noise strength, and 50 shots were acquired in a random pattern across the spot and spectra combined. The spectra were externally calibrated with Sciex Pepcal mix (range: 500–4,000 m/z).

Data set [5] concerns the target T4, PaAP_T (P. aeruginosa aminopeptidase, C-terminal truncated) (Pseudomonas aeruginosa, UniProt Q02PA2).
T4 construct: PaAP (WT, residues 27–536); His6 (TEV cleavable) (N, cleaved yes); made in house; host or cells: E. coli SHuffle T7
T4 sequence (Q02PA2 whole entry, looked up): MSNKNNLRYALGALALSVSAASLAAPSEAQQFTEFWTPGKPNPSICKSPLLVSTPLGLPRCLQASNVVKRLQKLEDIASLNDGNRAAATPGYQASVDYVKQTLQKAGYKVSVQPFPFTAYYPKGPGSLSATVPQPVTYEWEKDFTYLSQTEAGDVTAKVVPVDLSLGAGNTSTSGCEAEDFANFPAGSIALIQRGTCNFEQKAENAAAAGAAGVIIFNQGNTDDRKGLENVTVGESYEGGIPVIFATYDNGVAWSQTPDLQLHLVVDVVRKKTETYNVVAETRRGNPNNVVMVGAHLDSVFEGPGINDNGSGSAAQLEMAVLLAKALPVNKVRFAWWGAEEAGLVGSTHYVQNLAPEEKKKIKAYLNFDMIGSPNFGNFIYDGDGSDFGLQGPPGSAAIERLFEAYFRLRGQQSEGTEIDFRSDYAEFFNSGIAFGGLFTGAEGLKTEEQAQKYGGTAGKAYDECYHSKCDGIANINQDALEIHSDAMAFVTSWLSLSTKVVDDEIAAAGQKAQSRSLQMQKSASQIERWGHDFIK
Description: Inhibition of PaAP_T in the Leu-pNA aminopeptidase assay (KI, IC50). Type of data set: biochemical. To be noted: for IC50 plot data (PaAP_T activity at given peptide concentration): (S) = 2 mM, PaAP 100 nM, listed as ERWGHDFIK-NH3. As to the method:
as §1, §2

For data set [6], the system named is PaAP. The arrangement: method as in PMID 30894675. The conditions noted are these: impacted the activity of PaAP in vivo; cited from earlier work.
Data set [7] deals with PaAP_T. Description: reaction buffer (50 mM Tris, pH 8.5, 100 mM NaCl), time-course assay. The conditions noted are these: Pseudomonas aeruginosa (recombinant enzyme), room temperature, up to 1220 min.
Data set [8] deals with PaAP_T. Kind of data set: PaAP_T in reaction buffer (50 mM Tris, pH 8.5, 100 mM NaCl), time course. The conditions noted are these: P. aeruginosa, room temperature, up to 1220 minutes.

T3 sequence (Q02PA2 37-516 A513L/Q514V/S515P): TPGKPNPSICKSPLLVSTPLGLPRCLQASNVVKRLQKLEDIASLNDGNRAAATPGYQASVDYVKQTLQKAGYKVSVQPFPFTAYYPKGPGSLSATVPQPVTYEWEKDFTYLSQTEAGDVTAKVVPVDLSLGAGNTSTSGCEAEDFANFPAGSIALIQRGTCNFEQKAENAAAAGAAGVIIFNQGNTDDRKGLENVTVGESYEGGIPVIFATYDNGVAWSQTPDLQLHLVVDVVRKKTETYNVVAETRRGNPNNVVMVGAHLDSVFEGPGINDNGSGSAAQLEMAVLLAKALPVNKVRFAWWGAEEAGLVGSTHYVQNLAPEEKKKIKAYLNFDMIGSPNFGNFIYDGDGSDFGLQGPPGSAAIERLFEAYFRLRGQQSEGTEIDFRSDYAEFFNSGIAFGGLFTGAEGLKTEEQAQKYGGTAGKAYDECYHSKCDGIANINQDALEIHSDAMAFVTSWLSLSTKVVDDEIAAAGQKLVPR

Consider `CC[C@H](C)[C@@H]1NC(=O)[C@H](Cc2ccccc2)NC(=O)[C@H](CC(=O)O)NC(=O)[C@H](Cc2c[nH]cn2)NC(=O)CNC(=O)[C@H](Cc2c[nH]c3ccccc23)NC(=O)[C@H](CCCNC(=N)N)NC(=O)[C@@H](N)CCC(=O)NCCCC[C@@H](C(=O)O)NC1=O` [cyclic-ERWGHDFIK] (H-ERWGHDFIK-OH; lactam 1-9), for which, in “in vitro”, the fraction remaining at 48 h is more than 60%. The Ki in [1] was 22.8 nM.
Turning to Ac-ERWGHDFIK, the not cleaved entry in the data set with PaAP [2] is “not a substrate”.
As to `CC(C)C[C@H](N)C(=O)Nc1ccc([N+](=O)[O-])cc1` [Leu-pNA], the kcat on PaAP_T [3] was 11.5 s⁻¹.
As to “ERWGHDFIK-NH2: ERWGHDFIK peptide harboring a C-terminal amide”, the “substrate of / degraded by PaAP (words)” value with PaAP [4] (incubated with PaAP overnight, LC–MS or MALDI, listed as ERWEGHDFIK-NH3) was “good substrate”. For the same molecule, the “P0 (parent peptide, LC–MS signal)” value was 747781 and 703178 and 683749 in the data set with PaAP [4] (time 0 minutes); 717720 and 659374 and 657747 with PaAP [4] (time 5 minutes); 666366 and 611681 and 573626 with PaAP [4] (time 10 minutes); 456167 and 415831 and 416655 in the data set with PaAP [4] (time 30 minutes); 206401 and 213826 and 168991 with PaAP [4] (time 60 minutes); 48119.3 and 55308.2 and 38290.8 with PaAP [4] (time 90 minutes). The “P0 (parent peptide, LC–MS signal)” value in the data set with PaAP [4] (time 120 minutes) was 7764.71 and 8223.82 and 5808.71; with PaAP [4] (time 180 minutes) it was 323.386 and 411.426 and 320.297. Moreover, the “relative rate of degradation by PaAP” value with PaAP [4] (time-course assay, LC–MS) is on record as “processed at a faster rate than unmodified ERWGHDFIK”. The “IC50 relative to unmodified linear ERWGHDFIK” value in data set [5] (Leu-pNA assay) was “increased IC50 value”. Moreover, the “inhibition of PaAP_T” value in [5] (Leu-pNA assay) is reported as “very poor inhibitors”. The “IC50 plot data (PaAP_T activity at given peptide concentration)” value in [5] (log(I) 0) was 100.509 and 101.823 and 100.804; in data set [5] (log(I) 0.39794), 100.885 and 102.922 and 101.877; in [5] (log(I) 0.69897), 100.054 and 101.233 and 108.07; in data set [5] (log(I) 1) it was 99.2493 and 105.174 and 106.059; in data set [5] (log(I) 1.39794), 96.4075 and 101.34 and 94.2091; in data set [5] (log(I) 1.69897) it was 90.5898 and 93.2172 and 95.2547. Moreover, the “IC50 plot data (PaAP_T activity at given peptide concentration)” value was 71.9303 and 76.8365 and 72.5737 in [5] (log(I) 2); 36.7024 and 39.9464 and 37.7748 in data set [5] (log(I) 2.39794); 101.126 and 105.737 and 97.1046 in [5] (log(I) -0.30103); 99.866 and 101.85 and 100.456 in data set [5] (log(I) -0.60206); 101.475 and 103.619 and 100.617 in data set [5] (log(I) -1); 101.126 and 99.5174 and 100.483 in data set [5] (log(I) -1.30103).
`CC(C)[C@H](N)C(=O)Nc1ccc([N+](=O)[O-])cc1` [Val-pNA]: on PaAP_T [3], the kcat stood at 0.115 s⁻¹.
Still for that read-out and setting: the figure for `NCCCC[C@H](N)C(=O)Nc1ccc([N+](=O)[O-])cc1` [Lys-pNA] is 4.13 s⁻¹.
On to “cyclic-ERWGHDFIK cyclized by isopeptide bond”, for which the not cleaved result with PaAP [2] is given as “not degraded when incubated overnight with PaAP”.
For the molecule `O=C(O)CCNC(=O)c1ccc(/N=N/c2ccc(O)c(C(=O)O)c2)cc1` [Balsalazide], in the data set with PaAP [6], the “effect on biofilm” value was “anti-biofilm phenotype”.
With HCATIPAFDG, the fragment found result in the data set on PaAP_T [7] is listed as “products from P-5, major”; in the data set with PaAP_T [8], “products from P-5, major”.
